Values quoted from earlier work, collected in PMC10866363.

Target: Trigger factor (Escherichia coli) (UniProt P0A850)

Sequence of Trigger factor (P0A850 whole entry): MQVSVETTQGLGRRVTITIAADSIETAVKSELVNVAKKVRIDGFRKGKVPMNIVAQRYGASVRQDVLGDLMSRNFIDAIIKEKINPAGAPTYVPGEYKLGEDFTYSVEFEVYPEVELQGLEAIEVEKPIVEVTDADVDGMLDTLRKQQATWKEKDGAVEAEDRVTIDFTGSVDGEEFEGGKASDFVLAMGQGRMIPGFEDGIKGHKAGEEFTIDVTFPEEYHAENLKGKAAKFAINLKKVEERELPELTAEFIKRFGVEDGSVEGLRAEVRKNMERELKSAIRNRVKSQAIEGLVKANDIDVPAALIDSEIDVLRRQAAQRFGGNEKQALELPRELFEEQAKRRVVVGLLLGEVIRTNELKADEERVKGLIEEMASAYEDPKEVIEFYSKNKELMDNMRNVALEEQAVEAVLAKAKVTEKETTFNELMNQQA

For Trigger factor (from UniProt P0A850), the Kd is given as 2 µM.
